[ ]: non-standard residue; d: D form.
Target: integrin receptors on NIH/3T3 fibroblast cells
Assay: cell-based or functional assay

decrease in Cy3B fluorescence under individual cells, Ttol=12 pN duplexes: 13.7% | decrease in Cy3B fluorescence under individual cells, Ttol=56 pN duplex: 6.5% | fold decrease in MCR signal of controls (duplexes lacking cRGDfK, scrambled duplexes) against the 12 pN cRGDfK surface: 150 fold
Binder: cyclo(RGD[dF]K) (also: biotin-labelled (cRGDfK-biotin), bound via streptavidin) [cyclic Arg-Gly-Asp-d-Phe-Lys (cRGDfK) peptide]
